For assay [1], the target named is FITC-SgbA(leader) (Streptomyces globisporus subsp. globisporus NRRL B2293). As to the kind of experiment: fluorescence polarisation. Background: In fluorescence polarisation assays a small probe gives low polarisation when free and higher when bound to something large.
Assay [2] concerns protein tyrosine phosphatase 1B (PTP1B). To be noted: at 50 μM; ref [48]; cited from earlier work.

Substance “His6-SgbL(kinase 208-548) (domain or fragment)” had a dissociation constant (Kd) in assay [1] of 357 nM.
In assay [1], “His6-SgbL(lyase-kinase 1-548) (domain or fragment)” showed a Kd of 351 nM.
streptocollin: the “inhibition of PTP1B” value in assay [2] is reported as 33%.

One may read the Kd as a measure of binding affinity in units of concentration. Read a high Kd as lower affinity.

The values above are taken from PMC5932250 (Journal of the American Chemical Society, 2018).
